T1: PUF4 RNA-binding domain (Saccharomyces cerevisiae, UniProt P25339 537-888)
T1 sequence: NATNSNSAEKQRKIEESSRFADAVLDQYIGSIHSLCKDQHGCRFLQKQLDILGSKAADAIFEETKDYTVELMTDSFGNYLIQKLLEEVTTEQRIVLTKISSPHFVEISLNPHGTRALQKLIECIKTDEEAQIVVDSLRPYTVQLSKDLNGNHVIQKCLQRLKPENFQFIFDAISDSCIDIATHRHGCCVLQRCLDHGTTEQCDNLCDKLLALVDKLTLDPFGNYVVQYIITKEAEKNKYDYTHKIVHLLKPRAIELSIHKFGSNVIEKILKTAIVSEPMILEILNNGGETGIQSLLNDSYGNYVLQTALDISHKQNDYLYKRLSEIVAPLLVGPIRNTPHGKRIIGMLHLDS


Target: T1, PUF4 RNA-binding domain
Test: Mg; RNA-MaP; 20 mM Na-HEPES pH 7.4, 30 mM KOAc, 0.75 mM MgCl2, 0.1% Tween-20, 5% glycerol, 0.1 mg/mL BSA, 2 mM DTT; 25 C; 0.0125-409.6 nM protein
Conditions: tags: N-His6-TEV cleaved; C-SNAP kept, Cy3B-labelled; label: tethered on chip by stalled RNA polymerase

Binder	Kd
UCUCUUUGUAUUCGUCUCUU (ssRNA) [Ic_S1_P3E.1_K3.1_C3.1_H3.1_A3.1_[A6T]_F3.1_[T7C]_[A8G]_T3.1]	523 nM
UCUCUUUGUAGCAGUUCUCUU (ssRNA) [Ic_S1_P4E.1_K4.1_C4.1_H4.1_A4.1_[T5G]_[A6C]_[T7A]_F4.1_[T8G]_[A9T]_T4.1]	1440 nM
UCUCUUUGUAGUCUAUCUCUU (ssRNA) [Ic_S1_P4E.1_K4.1_C4.1_H4.1_A4.1_[T5G]_[A6T]_[T7C]_F4.1_T4.1]	21.1 nM
UCUCUUUGUAUUACUCUCUU (ssRNA) [Ic_S1_P3E.1_K3.1_C3.1_H3.1_A3.1_[A6T]_F3.1_[T7A]_[A8C]_T3.1]	167 nM
UCUCUUUGUAUUAUUCUCUU (ssRNA) [Ic_S1_P3E.1_K3.1_C3.1_H3.1_A3.1_[A6T]_F3.1_[T7A]_[A8T]_T3.1]	14.5 nM
UCUCUUUGUAGUCUUUCUCUU (ssRNA) [Ic_S1_P4E.1_K4.1_C4.1_H4.1_A4.1_[T5G]_[A6T]_[T7C]_F4.1_[A9T]_T4.1]	389 nM
UCUCUUUGUAGUCUCUCUCUU (ssRNA) [Ic_S1_P4E.1_K4.1_C4.1_H4.1_A4.1_[T5G]_[A6T]_[T7C]_F4.1_[A9C]_T4.1]	658 nM
UCUCUUUGUAUACCUCUCUU (ssRNA) [Ic_S1_P3E.1_K3.1_C3.1_H3.1_A3.1_F3.1_[T7C]_[A8C]_T3.1]	48.9 nM
UCUCUUUGUAGCUUCUCUCUU (ssRNA) [Ic_S1_P4E.1_K4.1_C4.1_H4.1_A4.1_[T5G]_[A6C]_F4.1_[A9C]_T4.1]	612 nM
UCUCUUUGUAGCCGGUCUCUU (ssRNA) [Ic_S1_P4E.1_K4.1_C4.1_H4.1_A4.1_[T5G]_[A6C]_[T7C]_F4.1_[T8G]_[A9G]_T4.1]	> 2300 nM
UCUCUUUGUAGUCUGUCUCUU (ssRNA) [Ic_S1_P4E.1_K4.1_C4.1_H4.1_A4.1_[T5G]_[A6T]_[T7C]_F4.1_[A9G]_T4.1]	406 nM
UCUCUUUGUAGUGUCUCUCUU (ssRNA) [Ic_S1_P4E.1_K4.1_C4.1_H4.1_A4.1_[T5G]_[A6T]_[T7G]_F4.1_[A9C]_T4.1]	1370 nM
UCUCUUUGUAGCUUUUCUCUU (ssRNA) [Ic_S1_P4E.1_K4.1_C4.1_H4.1_A4.1_[T5G]_[A6C]_F4.1_[A9T]_T4.1]	361 nM
UCUCUUUGUAUUCUUCUCUU (ssRNA) [Ic_S1_P3E.1_K3.1_C3.1_H3.1_A3.1_[A6T]_F3.1_[T7C]_[A8T]_T3.1]	32.5 nM
UCUCUUUGUAGCGUCUCUCUU (ssRNA) [Ic_S1_P4E.1_K4.1_C4.1_H4.1_A4.1_[T5G]_[A6C]_[T7G]_F4.1_[A9C]_T4.1]	1710 nM
UCUCUUUGUAGCCGAUCUCUU (ssRNA) [Ic_S1_P4E.1_K4.1_C4.1_H4.1_A4.1_[T5G]_[A6C]_[T7C]_F4.1_[T8G]_T4.1]	> 2300 nM
UCUCUUUGUAGUGUAUCUCUU (ssRNA) [Ic_S1_P4E.1_K4.1_C4.1_H4.1_A4.1_[T5G]_[A6T]_[T7G]_F4.1_T4.1]	52.3 nM
UCUCUUUGUAGCGUUUCUCUU (ssRNA) [Ic_S1_P4E.1_K4.1_C4.1_H4.1_A4.1_[T5G]_[A6C]_[T7G]_F4.1_[A9T]_T4.1]	964 nM
UCUCUUUGUAGUCGGUCUCUU (ssRNA) [Ic_S1_P4E.1_K4.1_C4.1_H4.1_A4.1_[T5G]_[A6T]_[T7C]_F4.1_[T8G]_[A9G]_T4.1]	> 2300 nM
UCUCUUUGUAUAUAUCUCUU (ssRNA) [If_S1_P3E.1_K3.1_C3.1_H3.1_A3.1_F3.1_T3.1]	4.91 nM
UCUCUUUGUAUUGGUCUCUU (ssRNA) [Ic_S1_P3E.1_K3.1_C3.1_H3.1_A3.1_[A6T]_F3.1_[T7G]_[A8G]_T3.1]	1360 nM
UCUCUUUGUAGUCACUCUCUU (ssRNA) [Ic_S1_P4E.1_K4.1_C4.1_H4.1_A4.1_[T5G]_[A6T]_[T7C]_F4.1_[T8A]_[A9C]_T4.1]	1760 nM

Binder	Kd
UCUCUUUGUAGCAUCUCUCUU (ssRNA) [Ic_S1_P4E.1_K4.1_C4.1_H4.1_A4.1_[T5G]_[A6C]_[T7A]_F4.1_[A9C]_T4.1]	398 nM
UCUCUUUGUAGCAAAUCUCUU (ssRNA) [Ic_S1_P4E.1_K4.1_C4.1_H4.1_A4.1_[T5G]_[A6C]_[T7A]_F4.1_[T8A]_T4.1]	833 nM
UCUCUUUGUAGUAAUUCUCUU (ssRNA) [Ic_S1_P4E.1_K4.1_C4.1_H4.1_A4.1_[T5G]_[A6T]_[T7A]_F4.1_[T8A]_[A9T]_T4.1]	1500 nM
UCUCUUUGUAGUGCUUCUCUU (ssRNA) [Ic_S1_P4E.1_K4.1_C4.1_H4.1_A4.1_[T5G]_[A6T]_[T7G]_F4.1_[T8C]_[A9T]_T4.1]	> 2300 nM
UCUCUUUGUAGCCGUUCUCUU (ssRNA) [Ic_S1_P4E.1_K4.1_C4.1_H4.1_A4.1_[T5G]_[A6C]_[T7C]_F4.1_[T8G]_[A9T]_T4.1]	> 2300 nM
UCUCUUUGUAGCUGCUCUCUU (ssRNA) [Ic_S1_P4E.1_K4.1_C4.1_H4.1_A4.1_[T5G]_[A6C]_F4.1_[T8G]_[A9C]_T4.1]	2070 nM
UCUCUUUGUAGCAGCUCUCUU (ssRNA) [Ic_S1_P4E.1_K4.1_C4.1_H4.1_A4.1_[T5G]_[A6C]_[T7A]_F4.1_[T8G]_[A9C]_T4.1]	> 2300 nM
UCUCUUUGUAUAGCUCUCUU (ssRNA) [Ic_S1_P3E.1_K3.1_C3.1_H3.1_A3.1_F3.1_[T7G]_[A8C]_T3.1]	82.1 nM
UCUCUUUGUAGUGUGUCUCUU (ssRNA) [Ic_S1_P4E.1_K4.1_C4.1_H4.1_A4.1_[T5G]_[A6T]_[T7G]_F4.1_[A9G]_T4.1]	575 nM
UCUCUUUGUAGUAACUCUCUU (ssRNA) [Ic_S1_P4E.1_K4.1_C4.1_H4.1_A4.1_[T5G]_[A6T]_[T7A]_F4.1_[T8A]_[A9C]_T4.1]	> 2300 nM
UCUCUUUGUAGUACAUCUCUU (ssRNA) [Ic_S1_P4E.1_K4.1_C4.1_H4.1_A4.1_[T5G]_[A6T]_[T7A]_F4.1_[T8C]_T4.1]	1720 nM
UCUCUUUGUAUACGUCUCUU (ssRNA) [Ic_S1_P3E.1_K3.1_C3.1_H3.1_A3.1_F3.1_[T7C]_[A8G]_T3.1]	82 nM
UCUCUUUGUAGCCACUCUCUU (ssRNA) [Ic_S1_P4E.1_K4.1_C4.1_H4.1_A4.1_[T5G]_[A6C]_[T7C]_F4.1_[T8A]_[A9C]_T4.1]	> 2300 nM
UCUCUUUGUAGCACGUCUCUU (ssRNA) [Ic_S1_P4E.1_K4.1_C4.1_H4.1_A4.1_[T5G]_[A6C]_[T7A]_F4.1_[T8C]_[A9G]_T4.1]	> 2300 nM
UCUCUUUGUAGUGUUUCUCUU (ssRNA) [Ic_S1_P4E.1_K4.1_C4.1_H4.1_A4.1_[T5G]_[A6T]_[T7G]_F4.1_[A9T]_T4.1]	736 nM
UCUCUUUGUAGCAAUUCUCUU (ssRNA) [Ic_S1_P4E.1_K4.1_C4.1_H4.1_A4.1_[T5G]_[A6C]_[T7A]_F4.1_[T8A]_[A9T]_T4.1]	857 nM
UCUCUUUGUAGUACUUCUCUU (ssRNA) [Ic_S1_P4E.1_K4.1_C4.1_H4.1_A4.1_[T5G]_[A6T]_[T7A]_F4.1_[T8C]_[A9T]_T4.1]	760 nM
UCUCUUUGUAGCUUGUCUCUU (ssRNA) [Ic_S1_P4E.1_K4.1_C4.1_H4.1_A4.1_[T5G]_[A6C]_F4.1_[A9G]_T4.1]	1590 nM
UCUCUUUGUAUCAGUCUCUU (ssRNA) [Ic_S1_P3E.1_K3.1_C3.1_H3.1_A3.1_[A6C]_F3.1_[T7A]_[A8G]_T3.1]	483 nM
UCUCUUUGUAGUCCAUCUCUU (ssRNA) [Ic_S1_P4E.1_K4.1_C4.1_H4.1_A4.1_[T5G]_[A6T]_[T7C]_F4.1_[T8C]_T4.1]	1510 nM
UCUCUUUGUAUUGUUCUCUU (ssRNA) [Ic_S1_P3E.1_K3.1_C3.1_H3.1_A3.1_[A6T]_F3.1_[T7G]_[A8T]_T3.1]	38.1 nM
UCUCUUUGUAGCGUGUCUCUU (ssRNA) [Ic_S1_P4E.1_K4.1_C4.1_H4.1_A4.1_[T5G]_[A6C]_[T7G]_F4.1_[A9G]_T4.1]	2000 nM

Binder	Kd
UCUCUUUGUAGUCGUUCUCUU (ssRNA) [Ic_S1_P4E.1_K4.1_C4.1_H4.1_A4.1_[T5G]_[A6T]_[T7C]_F4.1_[T8G]_[A9T]_T4.1]	1600 nM
UCUCUUUGUAGCUCUUCUCUU (ssRNA) [Ic_S1_P4E.1_K4.1_C4.1_H4.1_A4.1_[T5G]_[A6C]_F4.1_[T8C]_[A9T]_T4.1]	2020 nM
UCUCUUUGUAGUCAUUCUCUU (ssRNA) [Ic_S1_P4E.1_K4.1_C4.1_H4.1_A4.1_[T5G]_[A6T]_[T7C]_F4.1_[T8A]_[A9T]_T4.1]	971 nM
UCUCUUUGUAGUCGCUCUCUU (ssRNA) [Ic_S1_P4E.1_K4.1_C4.1_H4.1_A4.1_[T5G]_[A6T]_[T7C]_F4.1_[T8G]_[A9C]_T4.1]	> 2300 nM
UCUCUUUGUAUAAGUCUCUU (ssRNA) [Ib_S1_P3E.1_K3.1_C3.1_H3.1_A3.1_F3.1_[T7A]_[A8G]_T3.1]	502 nM
UCUCUUUGUAGCAUUUCUCUU (ssRNA) [Ic_S1_P4E.1_K4.1_C4.1_H4.1_A4.1_[T5G]_[A6C]_[T7A]_F4.1_[A9T]_T4.1]	32.4 nM
UCUCUUUGUAGCAACUCUCUU (ssRNA) [Ic_S1_P4E.1_K4.1_C4.1_H4.1_A4.1_[T5G]_[A6C]_[T7A]_F4.1_[T8A]_[A9C]_T4.1]	1210 nM
UCUCUUUGUAGCCAUUCUCUU (ssRNA) [Ic_S1_P4E.1_K4.1_C4.1_H4.1_A4.1_[T5G]_[A6C]_[T7C]_F4.1_[T8A]_[A9T]_T4.1]	1890 nM
UCUCUUUGUAUUAGUCUCUU (ssRNA) [Ic_S1_P3E.1_K3.1_C3.1_H3.1_A3.1_[A6T]_F3.1_[T7A]_[A8G]_T3.1]	349 nM
UCUCUUUGUAGCCCUUCUCUU (ssRNA) [Ic_S1_P4E.1_K4.1_C4.1_H4.1_A4.1_[T5G]_[A6C]_[T7C]_F4.1_[T8C]_[A9T]_T4.1]	> 2300 nM
UCUCUUUGUAUCACUCUCUU (ssRNA) [Ic_S1_P3E.1_K3.1_C3.1_H3.1_A3.1_[A6C]_F3.1_[T7A]_[A8C]_T3.1]	127 nM
UCUCUUUGUAGCACAUCUCUU (ssRNA) [Ic_S1_P4E.1_K4.1_C4.1_H4.1_A4.1_[T5G]_[A6C]_[T7A]_F4.1_[T8C]_T4.1]	1440 nM
UCUCUUUGUAGCCCGUCUCUU (ssRNA) [Ic_S1_P4E.1_K4.1_C4.1_H4.1_A4.1_[T5G]_[A6C]_[T7C]_F4.1_[T8C]_[A9G]_T4.1]	> 2300 nM
UCUCUUUGUAGCCUUUCUCUU (ssRNA) [Ic_S1_P4E.1_K4.1_C4.1_H4.1_A4.1_[T5G]_[A6C]_[T7C]_F4.1_[A9T]_T4.1]	679 nM
UCUCUUUGUAUUCCUCUCUU (ssRNA) [Ic_S1_P3E.1_K3.1_C3.1_H3.1_A3.1_[A6T]_F3.1_[T7C]_[A8C]_T3.1]	113 nM
UCUCUUUGUAUACUUCUCUU (ssRNA) [Ic_S1_P3E.1_K3.1_C3.1_H3.1_A3.1_F3.1_[T7C]_[A8T]_T3.1]	5.59 nM
UCUCUUUGUAGUAUGUCUCUU (ssRNA) [Ic_S1_P4E.1_K4.1_C4.1_H4.1_A4.1_[T5G]_[A6T]_[T7A]_F4.1_[A9G]_T4.1]	278 nM
UCUCUUUGUAUAGUUCUCUU (ssRNA) [Ic_S1_P3E.1_K3.1_C3.1_H3.1_A3.1_F3.1_[T7G]_[A8T]_T3.1]	11 nM
UCUCUUUGUAGCCUAUCUCUU (ssRNA) [Ic_S1_P4E.1_K4.1_C4.1_H4.1_A4.1_[T5G]_[A6C]_[T7C]_F4.1_T4.1]	34.3 nM
UCUCUUUGUAGUGCCUCUCUU (ssRNA) [Ic_S1_P4E.1_K4.1_C4.1_H4.1_A4.1_[T5G]_[A6T]_[T7G]_F4.1_[T8C]_[A9C]_T4.1]	> 2300 nM
UCUCUUUGUAGCACUUCUCUU (ssRNA) [Ic_S1_P4E.1_K4.1_C4.1_H4.1_A4.1_[T5G]_[A6C]_[T7A]_F4.1_[T8C]_[A9T]_T4.1]	949 nM

Source: article PMC9352680, “A comprehensive thermodynamic model for RNA binding by the Saccharomyces cerevisiae Pumilio protein PUF4”
